System: Escherichia coli TOP10
Assay: shrunken log2 fold change of peptide-encoding DNA abundance (4.5 h post-induction vs induction); higher = less antimicrobial activity (less host growth inhibition)
Settings: time post-induction: 4.5 h; library: site-saturation at positions 5, 18, 19, 20
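Note: peptides expressed intracellularly from a pBAD plasmid library in pooled LB shake-flask culture, induced with 0.3% L-arabinose, DNA abundance read by NGS, three biological replicates, DESeq2 with apeglm shrinkage.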

Row | Sequence | shrunken log2 fold change
1 | RRIRCRPPRLPRPRPRPCQNPRP | -0.0888
2 | RRIRCRPPRLPRPRPRPCSVPRP | -0.177
3 | RRIRCRPPRLPRPRPRPCSYPRP | -0.895
4 | RRIRCRPPRLPRPRPRPCTEPRP | -0.186
5 | RRIRCRPPRLPRPRPRPCTKPRP | -0.507
6 | RRIRCRPPRLPRPRPRPCTVPRP | -0.419
7 | RRIRCRPPRLPRPRPRPCVIPRP | -0.334
8 | RRIRCRPPRLPRPRPRPCWAPRP | -0.0725
9 | RRIRCRPPRLPRPRPRPCWYPRP | 0.0339
10 | RRIRCRPPRLPRPRPRPDADPRP | 0.472
11 | RRIRCRPPRLPRPRPRPDDNPRP | 0.423
12 | RRIRCRPPRLPRPRPRPDDYPRP | 0.0185
13 | RRIRCRPPRLPRPRPRPDFGPRP | -0.275
14 | RRIRCRPPRLPRPRPRPDFHPRP | -0.685
15 | RRIRCRPPRLPRPRPRPDFLPRP | -0.657
16 | RRIRCRPPRLPRPRPRPDFWPRP | 0.0753
17 | RRIRCRPPRLPRPRPRPDGWPRP | 0.378
18 | RRIRCRPPRLPRPRPRPDHSPRP | -0.184
19 | RRIRCRPPRLPRPRPRPDHWPRP | -0.109
20 | RRIRCRPPRLPRPRPRPDIGPRP | -0.293
21 | RRIRCRPPRLPRPRPRPDKIPRP | -0.24
22 | RRIRCRPPRLPRPRPRPDKRPRP | 0.00837
23 | RRIRCRPPRLPRPRPRPDLYPRP | -0.0793
24 | RRIRCRPPRLPRPRPRPDMEPRP | 0.000584
25 | RRIRCRPPRLPRPRPRPDMQPRP | -0.672

Row | Sequence | shrunken log2 fold change
26 | RRIRCRPPRLPRPRPRPDNCPRP | 0.0206
27 | RRIRCRPPRLPRPRPRPDPHPRP | -0.015
28 | RRIRCRPPRLPRPRPRPDPKPRP | 0.0617
29 | RRIRCRPPRLPRPRPRPDPQPRP | 0.17
30 | RRIRCRPPRLPRPRPRPDPTPRP | 0.0668
31 | RRIRCRPPRLPRPRPRPDQVPRP | -0.183
32 | RRIRCRPPRLPRPRPRPDSMPRP | -0.0886
33 | RRIRCRPPRLPRPRPRPDTCPRP | -0.0965
34 | RRIRCRPPRLPRPRPRPDTWPRP | -0.234
35 | RRIRCRPPRLPRPRPRPDWAPRP | 0.0311
36 | RRIRCRPPRLPRPRPRPDWKPRP | 0.0808
37 | RRIRCRPPRLPRPRPRPDWMPRP | -0.11
38 | RRIRCRPPRLPRPRPRPEATPRP | 0.95
39 | RRIRCRPPRLPRPRPRPECHPRP | 0.0568
40 | RRIRCRPPRLPRPRPRPEDGPRP | -0.0134
41 | RRIRCRPPRLPRPRPRPEDMPRP | 0.176
42 | RRIRCRPPRLPRPRPRPEGAPRP | 0.766
43 | RRIRCRPPRLPRPRPRPEIAPRP | 0.193
44 | RRIRCRPPRLPRPRPRPEIDPRP | 0.138
45 | RRIRCRPPRLPRPRPRPEIEPRP | -0.00676
46 | RRIRCRPPRLPRPRPRPEIPPRP | 0.0317
47 | RRIRCRPPRLPRPRPRPEIWPRP | 0.471
48 | RRIRCRPPRLPRPRPRPEKMPRP | 0.0239
49 | RRIRCRPPRLPRPRPRPEMRPRP | 0.835
50 | RRIRCRPPRLPRPRPRPEPSPRP | 0.146

Row | Sequence | shrunken log2 fold change
51 | RRIRCRPPRLPRPRPRPEQGPRP | -0.205
52 | RRIRCRPPRLPRPRPRPEQMPRP | 0.45
53 | RRIRCRPPRLPRPRPRPERGPRP | 0.472
54 | RRIRCRPPRLPRPRPRPERQPRP | -0.00823
55 | RRIRCRPPRLPRPRPRPESPPRP | 0.315
56 | RRIRCRPPRLPRPRPRPEVEPRP | 0.254
57 | RRIRCRPPRLPRPRPRPEVMPRP | -0.0567
58 | RRIRCRPPRLPRPRPRPEWFPRP | 0.000144
59 | RRIRCRPPRLPRPRPRPEWNPRP | 0.202
60 | RRIRCRPPRLPRPRPRPFAKPRP | -0.108
61 | RRIRCRPPRLPRPRPRPFASPRP | 0.0328
62 | RRIRCRPPRLPRPRPRPFATPRP | 0.287
63 | RRIRCRPPRLPRPRPRPFCTPRP | -0.401
64 | RRIRCRPPRLPRPRPRPFDGPRP | -0.0927
65 | RRIRCRPPRLPRPRPRPFDSPRP | -0.00174
66 | RRIRCRPPRLPRPRPRPFEAPRP | 0.102
67 | RRIRCRPPRLPRPRPRPFEIPRP | -0.341
68 | RRIRCRPPRLPRPRPRPFEKPRP | -0.0689
69 | RRIRCRPPRLPRPRPRPFETPRP | -0.0151
70 | RRIRCRPPRLPRPRPRPFGTPRP | -0.256
71 | RRIRCRPPRLPRPRPRPFHNPRP | 2.29
72 | RRIRCRPPRLPRPRPRPFHPPRP | -0.075
73 | RRIRCRPPRLPRPRPRPFHYPRP | -2.22e-05
74 | RRIRCRPPRLPRPRPRPFKAPRP | -0.713
75 | RRIRCRPPRLPRPRPRPFKFPRP | -0.788

Row | Sequence | shrunken log2 fold change
76 | RRIRCRPPRLPRPRPRPFKVPRP | -0.0177
77 | RRIRCRPPRLPRPRPRPFKYPRP | -0.246
78 | RRIRCRPPRLPRPRPRPFNKPRP | -0.305
79 | RRIRCRPPRLPRPRPRPFQCPRP | -0.296
80 | RRIRCRPPRLPRPRPRPFRDPRP | -0.0732
81 | RRIRCRPPRLPRPRPRPFRWPRP | 0.406
82 | RRIRCRPPRLPRPRPRPFSNPRP | -0.117
83 | RRIRCRPPRLPRPRPRPFSPPRP | -0.181
84 | RRIRCRPPRLPRPRPRPFTLPRP | -0.048
85 | RRIRCRPPRLPRPRPRPFVPPRP | -0.139
86 | RRIRCRPPRLPRPRPRPFVWPRP | 0.0706
87 | RRIRCRPPRLPRPRPRPFYEPRP | -0.741
88 | RRIRCRPPRLPRPRPRPGACPRP | 0.257
89 | RRIRCRPPRLPRPRPRPGAKPRP | 0.309
90 | RRIRCRPPRLPRPRPRPGAPPRP | 0.734
91 | RRIRCRPPRLPRPRPRPGCFPRP | 0.0804
92 | RRIRCRPPRLPRPRPRPGDAPRP | 0.466
93 | RRIRCRPPRLPRPRPRPGDFPRP | -0.0027
94 | RRIRCRPPRLPRPRPRPGDMPRP | -0.115
95 | RRIRCRPPRLPRPRPRPGDNPRP | -0.125
96 | RRIRCRPPRLPRPRPRPGDPPRP | 0.132
97 | RRIRCRPPRLPRPRPRPGFAPRP | 0.354
98 | RRIRCRPPRLPRPRPRPGFCPRP | 0.124
99 | RRIRCRPPRLPRPRPRPGGDPRP | 0.142
100 | RRIRCRPPRLPRPRPRPGGWPRP | 0.656

Row | Sequence | shrunken log2 fold change
101 | RRIRCRPPRLPRPRPRPGHFPRP | -0.217
102 | RRIRCRPPRLPRPRPRPGHKPRP | -0.514
103 | RRIRCRPPRLPRPRPRPGICPRP | -0.0835
104 | RRIRCRPPRLPRPRPRPGMDPRP | -0.0572
105 | RRIRCRPPRLPRPRPRPGRDPRP | 0.18
106 | RRIRCRPPRLPRPRPRPGRYPRP | 0.0533
107 | RRIRCRPPRLPRPRPRPGSLPRP | 0.0481
108 | RRIRCRPPRLPRPRPRPGTNPRP | -0.15
109 | RRIRCRPPRLPRPRPRPGTPPRP | 0.0685
110 | RRIRCRPPRLPRPRPRPGVSPRP | 0.0886
111 | RRIRCRPPRLPRPRPRPGWQPRP | 0.331
112 | RRIRCRPPRLPRPRPRPGYAPRP | 0.085
113 | RRIRCRPPRLPRPRPRPGYDPRP | -0.167
114 | RRIRCRPPRLPRPRPRPHAGPRP | 0.185
115 | RRIRCRPPRLPRPRPRPHARPRP | 0.204
116 | RRIRCRPPRLPRPRPRPHDRPRP | -0.0905
117 | RRIRCRPPRLPRPRPRPHGFPRP | -0.0942
118 | RRIRCRPPRLPRPRPRPHGKPRP | -0.15
119 | RRIRCRPPRLPRPRPRPHGLPRP | -0.0989
120 | RRIRCRPPRLPRPRPRPHHLPRP | -0.808
121 | RRIRCRPPRLPRPRPRPHHNPRP | -0.901
122 | RRIRCRPPRLPRPRPRPHLVPRP | 0.565
123 | RRIRCRPPRLPRPRPRPHMSPRP | -0.193
124 | RRIRCRPPRLPRPRPRPHNEPRP | -0.535
125 | RRIRCRPPRLPRPRPRPHNYPRP | -0.831

Row | Sequence | shrunken log2 fold change
126 | RRIRCRPPRLPRPRPRPHPIPRP | -0.229
127 | RRIRCRPPRLPRPRPRPHPRPRP | 0.444
128 | RRIRCRPPRLPRPRPRPHQHPRP | -0.302
129 | RRIRCRPPRLPRPRPRPHRAPRP | -0.096
130 | RRIRCRPPRLPRPRPRPHRHPRP | -0.275
131 | RRIRCRPPRLPRPRPRPHSNPRP | -0.625
132 | RRIRCRPPRLPRPRPRPHTTPRP | -0.716
133 | RRIRCRPPRLPRPRPRPHVEPRP | -0.421
134 | RRIRCRPPRLPRPRPRPHWDPRP | -0.306
135 | RRIRCRPPRLPRPRPRPHWRPRP | 0.382
136 | RRIRCRPPRLPRPRPRPHYAPRP | -0.299
137 | RRIRCRPPRLPRPRPRPHYIPRP | -0.0818
138 | RRIRCRPPRLPRPRPRPHYQPRP | -1.29
139 | RRIRCRPPRLPRPRPRPIALPRP | -0.102
140 | RRIRCRPPRLPRPRPRPIDQPRP | -0.0719
141 | RRIRCRPPRLPRPRPRPIDVPRP | -0.856
142 | RRIRCRPPRLPRPRPRPIEYPRP | -0.148
143 | RRIRCRPPRLPRPRPRPIFCPRP | -0.339
144 | RRIRCRPPRLPRPRPRPIFGPRP | -0.0692
145 | RRIRCRPPRLPRPRPRPIHWPRP | -0.363
146 | RRIRCRPPRLPRPRPRPIIQPRP | -0.465
147 | RRIRCRPPRLPRPRPRPIKHPRP | -0.389
148 | RRIRCRPPRLPRPRPRPILCPRP | 2.87
149 | RRIRCRPPRLPRPRPRPILYPRP | -0.716
150 | RRIRCRPPRLPRPRPRPIMDPRP | -0.5
